In US20210380702A1 (Regeneron, published 2021):

Target: T1, recombinant human PD-L1 expressed with a C-terminal myc-myc-hexahistidine tag (hPD-L1-MMH) (human)
T1 construct: Monomeric PD-L1 reagent; also called hPD-L1-MMH Monomer
Assay: SPR, captured mAb, 25 C
Procedure: Binding association and dissociation rate constants (kₐ and kd, respectively), equilibrium dissociation constants and dissociation half-lives (KD and t_{1/2}, respectively) of antigen binding to purified anti-PD-L1 monoclonal antibodies were determined using a real-time surface plasmon resonance biosensor assay on a Biacore 4000 instrument. The Biacore sensor surface was either derivatized with polyclonal rabbit anti-mouse antibody (GE, #BR-1008-38) or with monoclonal mouse anti-human Fc antibody (GE, #BR-1008-39) to capture approximately 200-300 RUs of anti-PD-L1 monoclonal antibodies, expressed with either a mouse Fc or with human Fc, respectively. […] Different concentrations of PD-L1 reagents were injected over the anti-PD-L1 monoclonal antibody captured surface at a flow rate of 30 μL/min. The binding of the PD-L1 reagents to the captured monoclonal antibodies was monitored for 3 to 4 minutes while the dissociation of antibody bound PD-L1 reagents was monitored for 10 minutes in HBST running buffer (0.01 M HEPES pH 7.4, 0.15 M NaCl, 3 mM EDTA, 0.05% v/v Surfactant tween-20). Experiments were performed at either 25° C. or 37° C. Kinetic association (kₐ) and dissociation (kd) rate constants were determined by processing and fitting the data to a 1:1 binding model using Scrubber 2.0c curve fitting software. Binding dissociation equilibrium constants (KD) and dissociative half-lives (t_{1/2}) were then calculated from the kinetic rate constants as: KD (M)=kd/kₐ and t_{1/2} (min)=[In2/(60*kd)].

T1 sequence (chain, as listed by the source limits assumed): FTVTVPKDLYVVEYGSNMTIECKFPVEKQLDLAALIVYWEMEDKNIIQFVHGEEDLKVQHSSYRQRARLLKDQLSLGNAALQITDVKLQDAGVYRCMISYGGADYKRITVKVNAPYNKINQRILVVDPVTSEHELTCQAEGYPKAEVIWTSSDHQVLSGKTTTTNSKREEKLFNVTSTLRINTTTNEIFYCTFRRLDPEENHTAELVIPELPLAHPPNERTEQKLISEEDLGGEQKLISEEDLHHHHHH

B1: H1H9336P (antibody, human IgG1, V domains shown)
VH: EVQLVESGGGLVQPGRSLRLSCAASGFTFDDFAMHWVRQAPGKGLEWVSGISWTGGNMDYANSVKGRFTISREDAKNSLYLQMNSLRAADTALYYCVKDIRGIVATGGAFDIWGRGTMVTVSS
VL: DIQMTQSPSSLSASVGDRVTISCRASQTISTYLNWFQQKPGKAPKLLIYVVSSLQSGVPSRFSGSGSGTDFTLTISSLQPEDFATYYCQQSYSTPFTFGPGTKVDIK
Kd: 0.492 nM
koff: 0.00039 s⁻¹
kon: 792000 M⁻¹ s⁻¹
t1/2: 30 min

B2: H1H9387P2 (antibody, human IgG1, V domains shown)
VH: QVQLVQSGAEVKKPGSSVKVSCKASGGTFNTYVLSWVRQAPGQGLEWMGEIIPILGAANYAQNFQGRVTFTTDESTNTAYMDLSSLRSEDTAVYYCARDRTSGGFDPWGQGTLVTVSS
VL: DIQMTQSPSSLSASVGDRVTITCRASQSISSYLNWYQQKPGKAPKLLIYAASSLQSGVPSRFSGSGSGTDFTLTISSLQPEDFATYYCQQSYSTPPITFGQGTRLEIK
Kd: 22.1 nM
koff: 0.0582 s⁻¹
kon: 2.64e+06 M⁻¹ s⁻¹
t1/2: 0.2 min

B3: H1H9382P2 (antibody, human IgG1, V domains shown)
VH: EVQLVESGGGLVQPGGSLRLSCAASGFTVGTNFMNWVRQAPGKGLEWVSAIYSGGTANYADSVKGRFTISRDTSRNTLYLQMNSLRTEDTAVYYCARGGGMDVWGQGTTVTVSS
VL: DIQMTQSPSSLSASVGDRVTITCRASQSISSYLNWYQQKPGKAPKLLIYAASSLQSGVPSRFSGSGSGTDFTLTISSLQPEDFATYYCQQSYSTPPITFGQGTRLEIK
Kd: 60.6 nM
koff: 0.00479 s⁻¹
kon: 79000 M⁻¹ s⁻¹
t1/2: 2.4 min

B4: H1H9354P2 (antibody, human IgG1, V domains shown)
VH: EVQLVESGGGLVQPGGSLRLSCEASGFTVGVNHMNWVRQAPGKGLEWVSVIFSSGRTFYGDYVKGRLTIFRQTSQNTVYLQMNSLRSEDTAIYYCARGIGGLDIWGRGTMVTVSS
VL: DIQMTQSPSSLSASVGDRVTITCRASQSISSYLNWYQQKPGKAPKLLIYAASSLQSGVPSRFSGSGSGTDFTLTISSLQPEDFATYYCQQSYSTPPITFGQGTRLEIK
Kd: 8.04 nM
koff: 0.000383 s⁻¹
kon: 47600 M⁻¹ s⁻¹
t1/2: 30 min

B5: H1H9364P2 (antibody, human IgG1, V domains shown)
VH: EVQLVESGGGLVQPGRSLRLSCAASGFTFDDYALHWVRQAPGKGLEWVSGISWTGGTIDYADSVKGRFTISRDNAKNSLYLQMSSLRTEDTAIYYCTRDIRGNWKYGGWFDPWGQGTLVTVSS
VL: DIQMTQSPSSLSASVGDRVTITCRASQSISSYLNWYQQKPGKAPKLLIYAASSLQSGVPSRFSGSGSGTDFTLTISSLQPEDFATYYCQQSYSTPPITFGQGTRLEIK
Kd: 0.321 nM
koff: 0.000299 s⁻¹
kon: 932000 M⁻¹ s⁻¹
t1/2: 39 min

B6: H2aM8314N (antibody, mouse IgG2, V domains shown)
VH: EVQLVESGGGVVRPGGSLRLSCAASGFTFDDYGMTWVRQAPGRGLEWVSGIHWHGKRTGYADSVKGRFTISRDNAKKSLYLQMNSLKGEDTALYHCVRGGMSTGDWFDPWGQGTLVIVSS
VL: DIQMTQSPSSLSASLGDRVTITCRASQSINSYLNWYQQKPGKAPKLLIYVASSLQSGVPSRFSGSGSGTEFTLTISNLQPEDFATYYCQQSYSTPPITFGQGTRLEIK
notes: also called H2M8314N
Kd: 0.0558 nM
koff: 5.17e-05 s⁻¹
kon: 925000 M⁻¹ s⁻¹
t1/2: 224 min

B7: H2aM8321N (antibody, mouse IgG2, V domains shown)
VH: EERLVESGGDLVQPGGSLRLSCAASGITVGTNYMNWVRQAPGKGLEWVSVISSGGNTHYADSVKGRFIMSRQTSKNTLYLQMNSLETEDTAVYYCARGIRGLDVWGQGTMVTVSS
VL: DIQMTQSPSSLSASVGDRVTITCRASQSMSSYLNWYQQKPGRAPKLLIFAASSLQSGVPSRFSGSGSGTDFTLTISSLQPEDFATYYCQQSYSTPPITFGQGTRLEIK
notes: also called H2M8321N
Kd: 34.9 nM
koff: 0.00359 s⁻¹
kon: 103000 M⁻¹ s⁻¹
t1/2: 3.2 min

B8: H2aM8317N (antibody, mouse IgG2, V domains shown)
VH: EVQLVESGGGLVQPGGSLRLSCAASGFTVGSNYMNWVRQAPGKGLEWVSVIYSGGSTYYADSVKGRFTISRLTSKNTLYLQMSSLRPEDTAVYYCARGIRGLDVWGQGTTVTVSS
VL: DIQMTQSPSSLSASVGDRVTITCRASQTINIYLNWYQQKPGRAPRLLIYAASSLQSGVPSRFSGSGSGTDFTLTISSLQPEDFATYYCHQSYSTPPITFGQGTRLEIK
notes: also called H2M8317N
Kd: 421 nM
koff: 0.0395 s⁻¹
kon: 94000 M⁻¹ s⁻¹
t1/2: 0.3 min
